This note sets out measurements from US5492822A, “Method for recovering purified 100,000 dalton molecular weight fraction of human pancreatic cholesterol esterase” (Lange, III; Louis G., priority 1995, dated 1996).

The subject of test [1] is intestinal cells (colonic adenocarcinoma cells CaCo-2). The experiment in a line: Cellular uptake of 3H-cholesterol from 3H-cholesterol oleate. It counts as cell-based. As to conditions: 5 nM human pancreatic cholesterol esterase (100 K), 1.5 mM taurocholate, no heparin. The procedure: For example, intestinal cells (colonic adenocarcinoma cells CaCo-2, American Type Cell Culture) were grown in T150 flasks in medium consisting of DME, 10% v/v fetal bovine serum, 50 ug/ml gentamicin and 2 mM sodium pyruvate. Uptake experiments were conducted using 10^5 intestinal cells in PBS buffer containing 5 mM CaCl2, pH 7.4 in the presence of 5 uM ^3 H-cholesterol oleate (SRA=50 dpm/pmol) embedded in phosphatidylcholine vesicles along with 10% v/v lipoprotein-depleted serum and 1.5 mM taurocholate. At time zero, 5 nM human pancreatic cholesterol esterase (100 K, homogeneous) was added to one set of flasks, an equivalent volume of buffer to another set, and 1 mg/ml final concentration bulk heparin together with 5 nM enzyme to a third set. At selected times, i.e., 0, 15, 30, 60, 120 and 480 min, medium was removed and the cells were washed with medium to allow quantitation of ^3 H-cholesterol uptake. In the absence of enzyme, cellular uptake of ^3 H-cholesterol was linear and occurred at a rate of 400 dpm/hr/10^5 cells. In the presence of cholesterol esterase, the rate of ^3 H-cholesterol uptake was 1,800 dpm/hr/10^5 cells.

The target in test [2] is T1, human pancreatic cholesterol esterase (Homo sapiens, UniProt P19835).
T1 construct: from tissue; host or cells: human pancreas (autopsy)
T1 sequence (P19835 21-753): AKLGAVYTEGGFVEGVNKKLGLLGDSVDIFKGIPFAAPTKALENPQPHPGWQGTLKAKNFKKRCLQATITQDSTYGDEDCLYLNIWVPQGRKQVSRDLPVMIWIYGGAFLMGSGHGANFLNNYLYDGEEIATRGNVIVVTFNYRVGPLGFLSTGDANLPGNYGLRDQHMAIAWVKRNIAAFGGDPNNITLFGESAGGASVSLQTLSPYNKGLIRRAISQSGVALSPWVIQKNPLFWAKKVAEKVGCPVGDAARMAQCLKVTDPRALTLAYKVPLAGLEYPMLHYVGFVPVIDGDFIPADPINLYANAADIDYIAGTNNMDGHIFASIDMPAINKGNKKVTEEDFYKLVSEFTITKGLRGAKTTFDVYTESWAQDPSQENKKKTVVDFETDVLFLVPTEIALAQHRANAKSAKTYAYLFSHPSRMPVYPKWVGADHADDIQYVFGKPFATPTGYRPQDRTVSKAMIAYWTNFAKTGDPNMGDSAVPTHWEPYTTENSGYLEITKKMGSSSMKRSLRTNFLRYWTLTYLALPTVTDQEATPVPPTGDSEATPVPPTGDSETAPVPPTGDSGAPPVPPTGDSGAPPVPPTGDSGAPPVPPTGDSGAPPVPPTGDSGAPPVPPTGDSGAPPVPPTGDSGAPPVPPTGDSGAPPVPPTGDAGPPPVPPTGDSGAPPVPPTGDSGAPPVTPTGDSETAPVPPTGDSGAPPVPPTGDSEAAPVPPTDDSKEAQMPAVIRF
The experiment in a line: Binding of 125I-cholesterol esterase to small intestine vesicles and its displacement. As to conditions: specific binding, 15 min at 37°, 10 mM Tris-Cl pH 7.2; read-out: KD of cholesterol esterase binding to small intestine vesicles (Scatchard analysis). The procedure: (§1) Vesicles contained 1.0 mg protein/ml, 30 ug total cholesterol/mg protein and 50 ug endogenous heparin/mg protein. ^125 I-cholesterol esterase (100K or 67K form) was added (0 to 400 pmol; 2,000 dpm/pmol) to 100 ug of protein of small intestine vesicles in 10 mM Tris-Cl, pH 7.2 for 15 min. at 37°. The concentration of offered ^125 I-cholesterol esterase varied between 10 nM and 1 uM. Experiments were performed utilizing 1% blotto to decrease nonspecific protein binding to the vesicles. After the 15 minute incubation at 37°, the reaction was quenched and the assay mixtures were filtered through wells of a Millipore system containing 0.2 micron pore filters presoaked in buffer. The filtrate was-collected to assess free (unbound) enzyme, and the filters were then immediately washed with 15 ml of cold buffer and counted for ^125 I. Total binding was defined as ^125 I-dpm bound to filter paper minus ^125 I-dpm detected in the same reaction without vesicles (background). Nonspecific binding (radioactivity bound to the vesicles in the presence of excess cold ligand) was quantitated as the amount of ^125 I-cholesterol esterase binding in the presence of a 1000-fold molar excess of unlabeled cholesterol esterase as described above. Specific binding is defined as the difference between total bound dpm and nonspecific-bound dpm (converted to moles bound by dividing by the SRA).

Test [3] has as its system human pancreatic cholesterol esterase. Described as above. As to conditions: in the presence of 5 mM taurocholate. The procedure: as §1
In test [4] the target is T2, human pancreatic cholesterol esterase (100 kDa) (Homo sapiens, UniProt P19835).
T2 construct: from tissue; host or cells: human pancreas (autopsy)
T2 sequence (P19835 21-753): T1 sequence (P19835 21-753)
The test can be described thus: Triolein hydrolysis by human pancreatic cholesterol esterase (100 kDa). It counts as biochemical. As to conditions: purified 100 kDa esterase, in the presence of 5 mM taurocholate. From the text:
(§2) Human pancreatic cholesterol esterase (100 kDa) and human pancreatic triglyceride lipase (52 kDa) were purified to homogeneity (Examples 1 and 3), and their abilities to cleave triglycerides and cholesteryl esters were compared. […] Virtually the same results were found with cholesteryl esters; the 100 kDa enzyme cleaved cholesterol oleate at a rate at least 490-fold greater than that found for the 52 kDa triglyceride lipase.

Test [5] can be described thus: Cleavage of cholesterol oleate, 100 kDa enzyme compared with 52 kDa triglyceride lipase. Format: biochemical, human.
Source text: as §2

B1: Human pancreatic cholesterol esterase (100K form): 100,000 molecular weight form of human pancreatic cholesterol esterase purified over heparin agarose (protein, UniProt P19835 21-753, looked up)
Bile salt-activated lipase: T1 sequence (P19835 21-753)
Regarding B1, the “rate of 3H-cholesterol uptake” value in test [1] is 1,800 dpm/hr/10^5 cells. Also, the Kd in test [2] came to 100 nM. The “specific binding to vesicles retained” value in test [3] is 72%. The “rate of triolein hydrolysis” value in test [4] is 1,970 nmol/hr/g pancreas. Further, the “rate of cholesterol oleate cleavage relative to the 52 kDa triglyceride lipase” value in test [5] is reported as “at least 490 fold”.
